Km and Vmax data for one protein are collected here from paper PMC3515676.

Common to all, as to test: purified protein
Format in all cases: biochemical, Homo sapiens
Holding throughout (details): 14 μM PAP[35S], 50 mM Mops pH 7.0, 37 °C

Substrate in series [1]: C[C@H](CCC(=O)O)[C@H]1CC[C@H]2[C@@H]3CC[C@@H]4C[C@H](O)CC[C@]4(C)[C@H]3CC[C@]12C
Substrate in series [2]: C[C@H](CCCO)[C@H]1CC[C@H]2[C@@H]3[C@H](O)C[C@H]4C[C@H](O)CC[C@]4(C)[C@H]3C[C@H](O)[C@]12C
Substrate in series [3]: C[C@H](CCC(=O)O)[C@H]1CC[C@H]2[C@@H]3[C@H](O)C[C@@H]4C[C@H](O)CC[C@]4(C)[C@H]3CC[C@]12C
Substrate in series [4]: C[C@H](CCC(=O)NCC(=O)O)[C@H]1CC[C@H]2[C@@H]3[C@H](O)C[C@@H]4C[C@H](O)CC[C@]4(C)[C@H]3CC[C@]12C

B1: human SULT2A1 (hSULT2A1) (Homo sapiens) (protein)
chain: MSDDFLWFEGIAFPTMGFRSETLRKVRDEFVIRDEDVIILTYPKSGTNWLAEILCLMHSKGDAKWIQSVPIWERSPWVESEIGYTALSETESPRLFSSHLPIQLFPKSFFSSKAKVIYLMRNPRDVLVSGYFFWKNMKFIKKPKSWEEYFEWFCQGTVLYGSWFDHIHGWMPMREEKNFLLLSYEELKQDTGRTIEKICQFLGKTLEPEELNLILKNSSFQSMKENKMSNYSLLSVDYVVDKAQLLRKGVSGDWKNHFTVAQAEDFDKLFQEKMADLPRELFPWE
As usually defined, the Km is the substrate concentration at which the rate is half of its maximum. What is called Vmax is the top rate of the reaction or transport when substrate is in excess. For the protein B1, the Km turned out to be 8.36 ± 0.39 µM in “purified protein [1]”, 49.38 ± 4.62 µM in “purified protein [2]”, 42.30 ± 2.97 µM in the series “purified protein [3]” and 36.73 ± 2.47 µM in the series “purified protein [4]”. For the same protein, the Vmax in the series “purified protein [1]” was 0.036 µmol/min/mg; in the series “purified protein [2]”, 0.00549 µmol/min/mg; in the series “purified protein [3]” it was 0.00395 µmol/min/mg; in “purified protein [4]” it was 0.0038 µmol/min/mg.
